From the nanobody polyreactivity screen of Harvey et al. (2022)

Experiment: yeast display, Sf9 membrane polyspecificity reagent, FACS + sequencing; frameworks hold sequencing errors
In short: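 Using colony PCR, genes from sorted yeast display clones were amplified, then sequenced on MiSeq at 2 × 250 and filtered by CDR length. The clones had been stained with 10% biotinylated, detergent-solubilized Sf9 membrane reagent for 1 hour at 4 °C and sorted by FACS into low and high (top ~1%) gates on anti-HA and streptavidin fluorescence. Polyreactivity labels come from the gate of origin.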

Row | Sequence | polyreactivity (PSR sort gate)
1 | HVQLVESGGGLVQAGGILRLSCAASGRIFPGYTMGWYRQGPGKERELVARISFSDGSTYYADSVNGRFTISRDNAKNTVYFQMNSRKPEDTAVYYCNAATYRNRHSNNGYWGQGTQVTVSS | low polyreactivity
2 | QVQLVESGGGLVQAGGSLRLSCAASGIIFYVYAMGWYRQAPGKERELVAAISSGGRTNYADSVKGRFTISRDNAKNTVYLQMNSLKPEDTAVYYCAAKSVRRRLGYWGQGTQVTVSS | high polyreactivity
3 | QVQLVESGGGLVQAGGSLRLSCAASGFTFWRYAMGWYRQAPGKERELVAVITRRGGSTYYADSVKGRFTISRDNAKNTVYLQMNSLKPEDTAVYYCAAGPVSQQHSPGPHDYWGQGTQVTVSS | high polyreactivity
4 | QVQLVESGGGLVQAGGSLRLSCAASGSIFNYYAMGWYRQAPGQERELVASISRGGSTNYADSVKGRFTISRDNAKNTVYLQMNSLKPEDTAVYYCNAEGWPGNVVYGYYYWGQGTQVTVSS | low polyreactivity
5 | QVQLVESGGGLVQAGGSLRLSCAASGFIFRGYAMGWYRQAPGKERELVAAISRRGGSTYYADSVKGRFTISRDNAKNTVYLQMNSLKPEDTAVYYCNARIRYVYWHSYDYWGQGTQVTVSS | high polyreactivity
6 | QVQLVESGGGLVQAGGSLRLSCAASGRTFLAYAMGWYRQAPGKERELVAAISSSGSTTYYADSVKGRFTISRDNAKNTVYLQMNSLKPEDTAVYYCAASNGYRSSYYRYDYWGQGTQVTVSS | low polyreactivity
7 | QVQLVESGGGLVQAGGSLRLSCAASGIIFPYYTMGGYRQAPGKERELVARITNGGRTYSADSVKGRFTISRDKAKNTVYLQMNSLKPEDTAVYYCAASWGRRKPRMDYWGQGTQVTVSS | high polyreactivity
8 | QVQLVESGGGLVQAGGSLRLSCAASGYTFALYAMGWYRQAPGKERELVAAITDSDGSTYADSVKGRFTISRDNAKNTVYLQMNSLKPEDNAVYYCAGRDPHLQGSSYLSYLTMDYWGQGTQVTVSS | low polyreactivity
9 | QVQLVESGGGLVQAGGSLRLSCAASGFTLSYYAMGWYRPAPGKEREFVAAIRTSGTSTYYADSVKGRFTISRDNAKNTVYLQMNSLKPEDTAVYYCAVARGSGWYWRSDYWGQGTQVTVSS | high polyreactivity
10 | QVQLQESGGGLVQAGGGLRLSCAASGTISGPHVMGWYRQAPGKEREFVAAINVGANTYYADNVKGRFTISRDNAKNTVYLQMNSLNPEDTAVYYCAAVYYGDIGHEYWGQGTQVTVSC | low polyreactivity
11 | QVQLVESCGGLVQAGGSLRLSCAASGSIFAYYAMGWYRQAPGKERDLVAAISRGGGSTYYADSVTGRFTLSRDNAKNTVYLQMNSLKQEDTAVYYCDAYYAKGRAYDYDYWGQGTQVTVSS | high polyreactivity
12 | QVQLVESGGGLVQAGGSLRLSCAASGSIFGTYAMGWYRQALGKERELVASIRFNGRTFYADSVKGRFTISRDNAKNTVYLQMNSLKPEDTAVYYCAAQTWYGFPNYYWGQGTQVTVSS | high polyreactivity
13 | QVQLVESGGGLVQAGGSLRLSCAASGLIFRGNDMGWYRQAPGKERELVAGINSSGSTNYADSVKGRFTISRDNAKNTVYLHMNSLKPEDTAVYYCAARAIVSFDYCGQGTQVTVSS | low polyreactivity
14 | QVQLVESGGGLVQAGGSLRLSCAASGSTFQSYTMGWYRQAPGKERELVATITSTSSTSYADSVKGRFTISRDNAKNTVYLQMNSLKPEDTAVYYCNAEGLHWGQVTQVTVSS | low polyreactivity
15 | QVQLVESGGGLVQAGGSLRLSWAASSIFRTYAMGWYRQAPGKERELVAAITWSGASTNYADSVKGRFTISRDNAKNTVYLQMNSLKPEDTAVYYCNADWRYYPSFKYYYWGQGTQVTVSS | high polyreactivity
16 | QVQLVESGGGLVQSGGSLRLSCAASGRTFYRYAMGWYRQAPGKERELVAAISYSTTRTYYADSVKGRFTISRDIAKNTVYLQMNSLKPEETAVYYCAAYGWSRFGYDYWGQGSQVTVSS | high polyreactivity
17 | QVQLVESWGGLVQAGGSLRLSCAATGVTFKFYAMGWYRQAPGKERELVAAISWSGTSTYYADSVKGRFTISRDNAKNTVYLQMNSLKPEDTAVYYCAADKRLRGHGYDYWGQGTQVTVSS | high polyreactivity
18 | QVQLVESGGGLVQAGGSLRLSCAASGRTFTFYAMGWYRQAPGKERELVATISYSGGRTYYADSVKGRFTISRDNAKNTVYLQMNSLKPEDTAVYYCATSVSGPWWKLYYWGQGTQVTVSS | low polyreactivity
19 | QVQLVESGGGLVQAGGSLRLSCAASGRTIGVYAMGWYRQAPGKERELVAAISWSGGTTYYADSVKGRFTISRDNAKNTVYLQMNSLKPEDTAVYYCAADSYTEVEYWGQGTQVTVSS | low polyreactivity
20 | QVQLVESGGGLVQAGGSLRLICAASGFTIGANTMGWYREAPGKERELVAAITSGGRTYYADSVKGRFTISRDNAKNTVYLQMNSLKPEDTAVYYCAAGRPRTIFQEYGSWGQGTQVTVSS | high polyreactivity
21 | QVQLVESGGGLVQAGGSLRLSCSPSGSILYGNAMGWYRQAPGKERELVAAITSGGSTYYADSVKGRFTISRDNAKNTVYLQMNSLKPEDTAVYYCNTVWATKGDYWGHGTQVTVSS | high polyreactivity
22 | QVQLVDSGGGLDQAGGSLRLSCAASGRIFGLYAMVWYRTAPGKEKELVAHIDVSDGSTYYADSVKGRFTISLDTAKNTVYLQMNRLKPEDTAVYYCNAEDSSRWYDWYLHDYWGQGTQVTVSS | high polyreactivity

Row | Sequence | polyreactivity (PSR sort gate)
23 | QVQLVESGGGLVQAGGSLRLSCAASGSTFDTNDMGWDRQAPGKERELVAAISSGGDYADSVKGRFTISRDNAKNTVYLQLNSLKPEDTAVYYCAKADTKWGQGTQVTVSS | low polyreactivity
24 | QVQLVESGGGLVQAGGSLRLSCAASGRTFIRYAMAWYRQAPGKGRELLAANNWSGSTYYADSVKGRFTISRDNAKNTVYVQINSLKPEDTAVYYCAAYPYGVTNAYGSWGQGTQVTVSS | high polyreactivity
25 | QVQLVESGGGLVQAGGSLRLSCAASGSIFEENAMGWYRQAPGKERELVAAINTRGGSTYYADSVKGRFTLSRDNAKNTVYLQMNSLKPEDTAVYYCALISRYYYWGQGTQVTVSS | high polyreactivity
26 | QVQLVESGGGLVQAGGSLRLSCADSGRTFGVYTMGWYRQAPGKERELVAAISGSGGSTYYADSVKGRFTISRDNAKNTVYLQMNSLKPEDTAVYYCNADQNVDVFYRYRLYDSWGQGTQVTVSS | high polyreactivity
27 | QVQLVESGGGLVQAGGSLRLSCAASGSTFLTNAMGWYRQAPGKERELVAAIRTSGGSTYYADSVKGRFTSSRDNAKKTVYVLMNSLKPEDTAVYYCAASYRRRRFSEYYYWGQGTQVTVAS | high polyreactivity
28 | QVQLVESGGGLVQAGGSLRLSCAASGRTFYFNGMGWYRQAPGKERELVATITASGTITYYADSVKGRFTISRDNAKNTVYLQLNSLKPEDTAVYYCAARQRGYYYSRRYDYWGQGTQVTVTS | high polyreactivity
29 | QVQLVESGGGLVQAGGSLRLSCAASGSTFYAYAMGWYRQAPGKERELVAAIRRSTGRTYYADSVKGRFTISRDNAKNTVYLQMNSLKPEDTAVYYCAASYPVDYYDMYYWGQGTQVTVSS | high polyreactivity
30 | QVQLVESAGGLVQAGGSLRLSCAASGSTFYTYTMGWYRQAPGKERELVAAISSSGGDTYYADSVKGRFTISRDNAKNTVYLQMNSLKPEDTAVYYCAAAGPYGAVWRNDYWGQGTQVTVSS | low polyreactivity
31 | QVQLVESGGRLVQAGGSLRVSCAASGSTFLFYAMVWYRQAPGKERELVATISRGGSTYYADSVKGRFTISRDNAKNTVYLQMNSQIPEDTAVYYCAARATRVTIAPRYGYWGQGTQVTVSS | low polyreactivity
32 | QVQLVESGGGLVQAGGSLRLSCAASGIIFQRNDMGWYRQAPGKERELVANIRDGGITYADSVKGRFTISRDNAKNTVYLQMNSLKPEDTAVYYCARDDTSPGYCDQSSNAAYYYWGQGTQVTVSS | low polyreactivity
33 | QVQHVHSGGGLVQAGGSLRLTCAASGSTFVGNAMVRYRQATGKERELVATISNSGGRTYYADSVKGRFTISRDNPKNTVYLQMNSLKAEDTAVYFCAADHPAFVPVYSFDYWGQGTQVNVSS | low polyreactivity
34 | QVQLVESGGGLVQAGGSLRLSCAASGFTFGRYAMGWYRQAPGKERELVATITRTGSTNYADSVKGRFTISRDNAKNTVYLQMNSLKPEDTAVYYCNAGPDRRVSYYRLLDHWGQGTQVTVSS | low polyreactivity
35 | QVQLVESGGGLVQAGGSLRLSCAASGFIFGYNAMGWYRQAPGKERELVAAINWSGGRTYYADSVKGRFTISRDNPKNTVYLQMNSLKPEDTAVSYCNADGSRRYNYWGQGTQVTVSS | low polyreactivity
36 | QVQLVESGGGLVQAGGSLRLSCAASGRIFRNYAMGWYRQAPGKERELVAAISVSGGRTYYADSVKGRFTISRDNAKNTVYLQMNSLKPEDTAVYYCAARTGRQGYSRGYNSWGQGTQVTVSS | high polyreactivity
37 | QVQLVESGGGLVQAGGSLRLSCASSGSIFPRYAMGSYRPAPGKERELVAAISQSGGRTYYADSVKGRFTISRDNAKNTVYLQMNSMKPEDTAVYYCAALVSGEYDYWGQGTQVTVSS | high polyreactivity
38 | QVQLEESGGGLVQAGGSLRLSCAASGNIFFVYDMGWYRQAPGKERELVAAISWSGGSTYADSVKGRFTISRDNAKNTVYLQMNSLKPEDTAVYYCAAARYAYKHAFEYWGQGTQVTVSS | low polyreactivity
39 | QVQLVESGGGLVQAGGSLRLSCAASGSTFSPYAMGWYRQAPGKERELVAGITGNGGSTRYADSVKGRFTISRDNAKNTVYLQMNSLKPEDTAVYYCAARWTRQRYRTSYYSWGQGTQVTVSS | high polyreactivity
40 | QVQLVESGGGLVQAVGSLRLSCAASGRIFRYNAMGWYRQAPVKERELVASITSAGSTNYADSVKGRFTISRDNAKNTVYLQMNSLKPEDTAVYYCAARAQSPPYGYWGQGTQVTVSS | high polyreactivity
41 | QVQLVESGGGLVQAGGSLRLSCAASGSIFEWYAMGWYRQAPGKERELVADITNNGGSTYYADSVKGRFTISRDNAKNTVYLQMNSLKPEDTAVYYCAADYFDQVPDYYYASEYGYWGQGTQVTVSS | low polyreactivity
42 | QVQLVESGGGLVQAGGSLRLSCAASGRIFKYYAMGWYRQAPGKERELVAAITSSGVSTYADSVKGRFTISRDNAKNTVYLQMISLKPEDTAVYYCADDYVREGLGYDYWGQGTQVTVSS | low polyreactivity
43 | QVQLVESGGGLVQAGGSLRLSCAACGFIFHFYAMGWYRQAPGKERELVASISAIGGSTYYADSVKGRFTISRDNAKNTVYLQMNSLKPEDTAVYYCATYSYRHRRYSRYDYWGQGTQVTVSS | high polyreactivity
